Reference: patent US20250243286A1 (SIXPEAKS BIO, published 2025)
Like-named read-outs stand apart in the source and are kept apart here.

T1: human ActRIIB (human, UniProt Q13705 19-137, limits assumed)
T1 construct: antigen in MSD-SET; also called ACVR2B; ActR2B
T1 sequence: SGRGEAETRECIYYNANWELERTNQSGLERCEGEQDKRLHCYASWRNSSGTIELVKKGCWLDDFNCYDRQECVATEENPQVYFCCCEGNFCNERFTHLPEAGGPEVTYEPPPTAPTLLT


Experiments:
[1] = target: T2, ActRIIA and ActRIIB (on TGFB/SMAD SBE Reporter HEK293 cells) (human); assay: cell-based or functional assay
[2] = target: T3, human ActRIIA (human, UniProt P27037 20-135, limits assumed); assay: MSD-SET
T3 construct: antigen in MSD-SET; also called ACVR2A; ActR2A
T3 sequence (P27037 20-135 limits assumed): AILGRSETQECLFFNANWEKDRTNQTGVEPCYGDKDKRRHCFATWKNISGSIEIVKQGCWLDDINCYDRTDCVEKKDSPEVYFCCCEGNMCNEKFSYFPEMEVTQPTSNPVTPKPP

[3] = target: T1, human ActRIIB; assay: MSD-SET; human ActRIIB; full antibody, separate cross-reactivity study (Table 6A)
[4] = target: T3, human ActRIIA; assay: MSD-SET; remark: listed apart in the source
[5] = target: T3, human ActRIIA; assay: MSD-SET; remark: listed apart in the source
[6] = target: T2, ActRIIA and ActRIIB (on TGFB/SMAD SBE …); assay: cell-based or functional assay; remark: listed apart in the source
[7] = target: T1, human ActRIIB; assay: MSD-SET; human ActRIIB; full-length IgG (Table 4B)
[8] = target: T1, human ActRIIB; assay: MSD-SET
[9] = target: T3, human ActRIIA; assay: MSD-SET, Fab KD over IgG KD
[10] = target: T1, human ActRIIB; assay: MSD-SET, Fab KD over IgG KD
[11] = target: T2, ActRIIA and ActRIIB (on TGFB/SMAD SBE …)
[12] = target: T3, human ActRIIA; assay: MSD-SET; remark: listed apart in the source
[13] = target: T2, ActRIIA and ActRIIB (on TGFB/SMAD SBE …); remark: listed apart in the source
[14] = target: T2, ActRIIA and ActRIIB (on TGFB/SMAD SBE …); assay: cell-based or functional assay; remark: listed apart in the source
[15] = target: T1, human ActRIIB; assay: MSD-SET; remark: listed apart in the source
[16] = target: T2, ActRIIA and ActRIIB (on TGFB/SMAD SBE …); assay: cell-based or functional assay; remark: listed apart in the source
[17] = target: T1, human ActRIIB; assay: MSD-SET, preliminary
[18] = target: T1, human ActRIIB; assay: MSD-SET; remark: listed apart in the source
[19] = target: Dog ActRIIA (dog, UniProt A0A8I3MYH0 20-135); assay: MSD-SET
[20] = target: Pig ActRIIA (pig, UniProt F1S0H6 20-135); assay: MSD-SET
[21] = target: mouse ActRIIA (mouse, UniProt P27038 20-135, limits assumed); assay: MSD-SET
mouse ActRIIA, sequence (P27038 20-135 limits assumed): as the sequence (P27037 20-135 limits assumed) above, with K20R, V73I counted along it

[22] = target: T1, human ActRIIB; assay: MSD-SET; remark: listed apart in the source

Row | Binder | IC50, Activin SMAD RGA [1] | IC50, Myostatin SMAD RGA [1] | IC90, Activin SMAD RGA [1] | IC90, Myostatin SMAD RGA [1] | Kd [2] | Kd [3] | Kd [4] | Kd [5] | IC50, Activin SMAD RGA [6] | IC50, Myostatin SMAD RGA [6] | Kd [7] | Kd [17] | Kd [18] | Kd [19] | Kd [20] | Kd [21] | also measured
1 | Antibody Wurschdsalat (antibody, V domains shown, full-length IgG) VH: QVQLVQSGAEVKKPGASVKVSCKASGYTFTSSYINWVRQAPGQGLEWMGTINAVSGSTSYAQKFQGRVTMTRDESISTAYMELSRLRSDDTAVYYCARGGWFDYWGQGTLVTVSS VL: QSALTQPASVSGSPGQSITISCTGTSSDVGSYNYVNWYQQHPGKAPKLMIYGVSKRESGVSNRFSGSKSGNTASLTISGLQAEDEADYYCGTFAGGKYYGVFGGGTKLTVL | 0.266 nM | 0.4 nM | 1.9 nM | 3.89 nM | 0.005 nM | 0.0044 nM | 0.0218 nM | 0.005 nM | 0.29 nM | 0.33 nM | 0.006 nM | – | – | – | – | – | –
2 | Biiramooscht Fab (Fab, V domains shown, Fab) VH: QVQLVQSGAEVKKPGASVKVSCKASGYTFTSSYINWVRQAPGQGLEWMGTINPVSGSTSYAQKFQGRVTMTRDTSISTAYMELSRLRSDDTAVYYCARGGWFDYWGQGTLVTVSS VL: QSALTQPASVSGSPGQSITISCTGTSSDVGSYNYVNWYQQHPGKAPKLMIYGVSKRESGVSNRFSGSKSGNTASLTISGLQAEDEADYYCGTFAGGAYYGVFGGGTKLTVL | – | – | – | – | 0.145 nM | – | – | – | 1.58 nM | 2.09 nM | – | – | – | – | – | – | Kd [8]: 0.021 nM; Fold difference (Fab:IgG) [9]: 5.2 fold; Fold difference (Fab:IgG) [10]: 4.4 fold; IC50 fold difference (Fab:IgG), Activin SMAD RGA [6]: 7.4 fold; IC50 fold difference (Fab:IgG), Myostatin SMAD RGA [6]: 7.9 fold
3 | Rippla Fab (Fab, V domains shown, Fab) VH: QVQLVQSGAEVRKPGASVKVSCKASGYTFTSSYINWVRQAPGQGLEWMGTINPVSGSTSYAQKFQGRVTMTRDTSISTAYMELSRLRSDDTAVYYCARGGWFDYWGQGTLVTVSS VL: QSALTQPASVSGSPGQSITISCTGTSSDVGSYNRVNWYQQHPGKAPKLMIYGVSKRESGVSNRFSGSKSGNTASLTISGLQAEDEADYYCGTFAGGRYYGVFGGGTKLTVL | – | – | – | – | 0.157 nM | – | – | – | 0.4 nM | 0.78 nM | – | – | – | – | – | – | Kd [8]: 0.006 nM; Fold difference (Fab:IgG) [9]: 3.8 fold; Fold difference (Fab:IgG) [10]: 1.1 fold; IC50 fold difference (Fab:IgG), Activin SMAD RGA [6]: 4.6 fold; IC50 fold difference (Fab:IgG), Myostatin SMAD RGA [6]: 5.1 fold
4 | Antibody Hefaknöpfla (antibody, V domains shown, full-length IgG) VH: QVQLVQSGAEVKKPGASVKVSCKASGYTFTSSYINWVRQAPGQGLEWMGTINAVSGSTSYAQKFQGRVTMTRDTSISTAYMELSRLRSDDTAVYYCARGGWFDYWGQGTLVTVSS VL: QSALTQPASVSGSPGQSITISCTGTSSDVGSKNYVNWYQQHPGKAPKLMIYGVSKRESGVSNRFSGSKSGNTASLTISGLQAEDEADYYCGTFAGGKYYGVFGGGTKLTVL | 0.139 nM | 0.211 nM | 2.16 nM | 5.37 nM | 0.015 nM | 0.0043 nM | 0.0123 nM | 0.015 nM | 0.13 nM | 0.26 nM | 0.005 nM | – | – | – | – | – | IC50 (read off the curve); Myostatin-stimulated SMAD reporter gene assay [11]: 0.3 nM; Kd [12]: 0.015 nM; IC50 (read off the curve); Activin-stimulated SMAD reporter gene assay [13]: 0.2 nM; IC50 [nM] (assay not given) [14]: 0.011 nM; IC50 fold difference to bimagrumab (assay not given) [14]: 27 fold; IC90 [nM] (assay not given) [14]: 1.6 nM; IC90 fold difference to bimagrumab (assay not given) [14]: 4.11 fold
5 | Antibody Ofaschlupfer (antibody, V domains shown, full-length IgG) VH: QVQLVQSGAEVKKPGSSVKVSCKASGYTFTSSYINWVRQAPGQGLEWMGTINAVSGSTSYAQKFQGRVTITADTSTSTAYMELSSLRSEDTAVYYCARGGWFDYWGQGTLVTVSS VL: QSALTQPRSVSGSPGQSVTISCTGTSSDVGSKNYVNWYQQHPGKAPKLMIYGVSKRESGVPDRFSGSKSGNTASLTISGLQAEDEADYYCGTFAGGKYYGVFGGGTKLTVL | – | 0.7 nM | 2.27 nM | 14.4 nM | – | – | – | – | – | – | – | 0.0277 nM | 0.0029 nM | – | – | – | Kd [15]: 0.0029 nM; IC50 fold difference to bimagrumab, Myostatin SMAD RGA [1]: 0.8 fold; IC90 fold difference to bimagrumab, Activin SMAD RGA [1]: 4.1 fold; IC90 fold difference to bimagrumab, Myostatin SMAD RGA [1]: 0.9 fold; IC95, Activin SMAD RGA [1]: 4.97 nM; IC95, Myostatin SMAD RGA [1]: 55.2 nM; IC95 fold difference to bimagrumab, Activin SMAD RGA [1]: 7.6 fold; IC95 fold difference to bimagrumab, Myostatin SMAD RGA [1]: 1 fold; IC99, Activin SMAD RGA [1]: 28.1 nM; IC99, Myostatin SMAD RGA [1]: 1240 nM; IC99 fold difference to bimagrumab, Activin SMAD RGA [1]: 29.6 fold; IC99 fold difference to bimagrumab, Myostatin SMAD RGA [1]: 2.2 fold; IC50, Activin SMAD RGA [16]: 0.32 nM; IC50 fold difference to bimagrumab, Activin SMAD RGA [16]: 1 fold; IC90, Activin SMAD RGA [16]: 3.02 nM; IC90 fold difference to bimagrumab, Activin SMAD RGA [16]: 2.1 fold; IC95, Activin SMAD RGA [16]: 7.07 nM; IC95 fold difference to bimagrumab, Activin SMAD RGA [16]: 21.8 fold; IC99, Activin SMAD RGA [16]: 47.8 nM; IC99 fold difference to bimagrumab, Activin SMAD RGA [16]: 147 fold
6 | Schwardamaga Fab (Fab, V domains shown, Fab) VH: QVQLVQSGAEVKKPGSSVKVSCKASGYTFTSSYINWVRQAPGQGLEWMGTINAVSGSTSYAQKFQGRVTITADTSTSTAYMELSSLRSEDTAVYYCARGGWFDYWGQGTLVTVSS VL: QSALTQPRSVSGSPGQSVTISCTGTSSDVGSANYVNWYQQHPGKAPKPMIYGVSRRPSGVPDRFSGSKSGNTASLTISGLQAEDEADYYCGTFAGGKYYGVFGGGTKLTVL | – | – | – | – | – | – | – | – | – | – | – | 0.0726 nM | 0.0138 nM | 0.044 nM | 0.029 nM | 0.039 nM | Kd [22]: 0.01 nM
7 | Soidawürstle Fab (Fab, V domains shown, Fab; also called Soidawüsrstel (Fab)) VH: QVQLVQSGAEVRKPGSSVKVSCKASGYTFTSSYINWVRQAPGQGLEWMGTINPVSGSTSYAQKFQGRVTITADTSTSTAYMELSSLRSEDTAVYYCARGGWFDYWGQGTLVTVSS VL: QSALTQPRSVSGSPGQSVTISCTGTSSDVGSYNRVNWYQQHPGKAPKLMIYGVSKRESGVPDRFSGSKSGNTASLTISGLQAEDEADYYCGTFAGGRYYGVFGGGTKLTVL | – | – | – | – | – | – | – | – | – | – | – | 0.0197 nM | 0.0026 nM | 0.028 nM | 0.022 nM | 0.04 nM | Kd [22]: 0.011 nM
8 | Antibody Duuranad (antibody, V domains shown, full-length IgG) VH: QVQLVQSGAEVKKPGASVKVSCKASGYTFTSSYINWVRQAPGQGLEWMGTINAVSGSTSYAQKFQGRVTMTRDTSISTAYMELSRLRSDDTAVYYCARGGWFDYWGQGTLVTVSS VL: QSALTQPASVSGSPGQSITISCTGTSSDVGSFNYVNWYQQHPGKAPKLMIRGVSKRESGVSNRFSGSKSGNTASLTISGLQAEDEADYYCGTFAGGAYYGVFGGGTKLTVL | 0.272 nM | 0.432 nM | 2.22 nM | 4.45 nM | 0.009 nM | 0.0054 nM | 0.0212 nM | 0.009 nM | 0.3 nM | 0.39 nM | 0.005 nM | – | – | – | – | – | –
9 | Bimagrumab Fab (Fab, V domains shown, Fab) VH: QVQLVQSGAEVKKPGASVKVSCKASGYTFTSSYINWVRQAPGQGLEWMGTINPVSGSTSYAQKFQGRVTMTRDTSISTAYMELSRLRSDDTAVYYCARGGWFDYWGQGTLVTVSS VL: QSALTQPASVSGSPGQSITISCTGTSSDVGSYNYVNWYQQHPGKAPKLMIYGVSKRPSGVSNRFSGSKSGNTASLTISGLQAEDEADYYCGTFAGGSYYGVFGGGTKLTVL | – | – | – | – | – | – | – | – | 4.39 nM | 6.87 nM | – | – | – | 0.354 nM | 0.188 nM | 0.239 nM | –
